Results as given in patent US20030031673A1 (published 2003).

Target: T1, prostate specific membrane antigen (human, UniProt Q04609 1-750)
T1 construct: whole, on cells; also called PSMA
Experiment: Western blot, prostatic (seminal) fluid
Description: To confirm that antibodies E99, J415, J533, and J591 precipitate an identical band to the 7Ell antibody (i.e., PSMA), Western Blot analyses were performed. Seminal plasma (400 μg/lane) or LNCaP lysate were loaded into lanes of 12% SDS-PAGE gels. After electrophoresis, the gels are transferred to nitrocellulose membranes. The membranes were blocked with 5% dry milk/Tris-buffered saline-tween 20 (“TBST”) for 60 min at room temperature. After washing, the membranes were incubated with primary mAb for 60 min at room temperature. After repeat washing, the membranes were incubated with sheep anti-mouse-Ig-peroxidase 1/5000 in 5% dry milk/TEST for 60 min at room temperature. After repeat washing, the membranes were developed using a chemiluminescent tag designated “ECL” (Amersham Life Sciences, International, Arlington Heights, Ill.) according to the manufacturer's directions.

T1 sequence (Q04609 whole entry): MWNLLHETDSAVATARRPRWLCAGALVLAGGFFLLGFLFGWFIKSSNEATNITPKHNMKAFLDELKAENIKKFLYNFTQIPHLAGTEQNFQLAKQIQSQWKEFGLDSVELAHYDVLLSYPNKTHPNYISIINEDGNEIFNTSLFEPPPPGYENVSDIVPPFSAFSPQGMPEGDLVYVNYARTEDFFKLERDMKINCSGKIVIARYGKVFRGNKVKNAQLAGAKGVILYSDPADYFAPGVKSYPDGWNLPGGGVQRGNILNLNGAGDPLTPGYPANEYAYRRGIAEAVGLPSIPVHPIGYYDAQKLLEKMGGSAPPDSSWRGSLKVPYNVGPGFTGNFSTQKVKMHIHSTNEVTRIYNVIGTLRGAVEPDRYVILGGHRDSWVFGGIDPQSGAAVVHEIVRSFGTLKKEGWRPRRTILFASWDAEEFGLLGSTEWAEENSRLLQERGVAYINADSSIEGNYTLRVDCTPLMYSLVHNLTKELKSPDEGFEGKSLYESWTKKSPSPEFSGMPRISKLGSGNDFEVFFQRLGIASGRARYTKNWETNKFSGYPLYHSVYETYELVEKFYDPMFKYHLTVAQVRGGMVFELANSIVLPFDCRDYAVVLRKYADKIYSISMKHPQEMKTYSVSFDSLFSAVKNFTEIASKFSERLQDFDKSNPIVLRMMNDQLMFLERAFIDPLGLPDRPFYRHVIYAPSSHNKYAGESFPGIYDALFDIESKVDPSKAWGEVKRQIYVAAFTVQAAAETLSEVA

B1: monoclonal antibody J591 (antibody, V domains shown)
VH: EVQLQQSGPELVKPGTSVRISCKTSGYTFTEYTIHWVKQSHGKSLEWIGNINPNNGGTTYNQKFEDKATLTVDKSSSTAYMELRSLTSEDSAVYYCAAGWNFDYWGQGTTLTVSS
VL: DIVMTQSHKFMSTSVGDRVSIICKASQDVGTAVDWYQQKPGQSPKLLIYWASTRHTGVPDRFTGSGSGTDFTLTITNVQSEDLADYFCQQYNSYPLTFGAGTMLDLK
notes: Gold-labeled in the electron microscopy; also called mAb J591; hybridoma ATCC HB-12126
binding result: binds
